Experimental data from patent US8415106B2, “Cell-based screen for agents useful for reducing neuronal demyelination or promoting neuronal remyelination” (Myelin Repair Foundation, Inc., priority 2005, dated 2013).

Key:
[1] = tested on: ER stress markers (BIP, CHOP, p-eIF-2α); assay: ER stress markers in the corpus callosum during remyelination (real time PCR, Western blot); type: in vivo, mice
Method: Repression of remyelination by IFN-γ is associated with ER stress. […] To determine whether IFN-γ interferes with endoplasmic reticulum (ER) function in remyelinating oligodendrocytes, the expression of ER stress markers was monitored in the corpus callosum of mice expressing IFN-γ. The study was performed using the transgenic mice described in Example 1.
The level of mRNA encoding ER stress associated genes binding immunoglobulin protein/78 KDa glucose regulated protein (BIP/GRP78) and the CAATT enhancer-binding protein homologous protein/growth and DNA damage protein 153 (CHOP/GADD153), was determined using real time PCR, as described in Example 1 in the corpus callosum of the cuprizone treated mice of Example 1. The probes, sense and antisense primers that were used were: […]
The level of phosphorylated eIF-2α, which inhibits nucleotide exchange on the eIF-2 complex and attenuates most protein synthesis, was analyzed by Western blot, and the expression was colocalized by immunostaining CC1 antibodies as described above. Western blot analysis was performed as follows. The corpus callosum from 3 mice was rinsed in ice cold phosphate-buffered saline (PBS) and pooled, and immediately homogenized in 5 volumes of Triton X-100 buffer (20 mM HEPES pH 7.5, 150 mM NaCl, 1% Triton X-100, 10% glycerol, 1 mM EDTA, 10 mM tetrasodium pyrophosphate, 100 mM NaF, 17.5 mM β-glycerophosphate, 10 mM phenylmethylsulfonyl fluoride, 15 μg/ml aprotonin, and 6 μg/ml pepstatin A) using a motorized homogenizer. After incubation on ice for 15 min, the extracts were cleared by centrifugation at 14,000 rpm twice for 30 min each. The protein content of each extract was determined by protein assay (Bio-Rad). The extracts (40 μg) were separated by sodium dodecyl sulfate-polyacrylamide gel electrophoresis and transferred to nitrocellulose. […] The following primary antibodies were used: anti-eIF-2α (1:500; Santa Cruz, Santa Cruz, Calif.), anti-p-eIF-2α (1:1000, Cell signaling Technology), anti-CHOP (1:500; Santa Cruz) and anti-actin (1:1000; Sigma, St Louis, Mo.).

[2] = tested on: ER stress markers (BIP, CHOP, p-eIF-2α, caspase-12); assay: ER stress markers in IFN-γ-treated cultured rat oligodendrocytes (real-time PCR, Western blot); type: cell-based
Method: To test whether apoptosis of oligodendrocytes that is induced by INF-γ affects ER stress, the effect on the morphology, the degree of apoptosis and the expression of ER markers was studied in a culture of oligodendrocyte precursor cells (OPC). Oligodendrocyte progenitors were cultured from neonatal rat brains (Baerwald, et al. (1998) J. Neurosci. Res. 52: 230-239). A mixed glial culture was grown in flasks in medium containing 10% fetal bovine serum (FBS), and when the astrocyte layer became confluent (10-14 days), oligodendrocyte progenitors were separated from astrocytes and microglia using an orbital shaker. Cells, greater than 95% of which were A2B5 positive, GFAP negative and CD11b negative, were cultured in 0.5% FBS containing medium, which also contained PDGF (10 ng/ml) and FGF (5 ng/ml) (both from R&D Systems, Minneapolis, Minn.). Then cells were switched to 0.5% FBS medium without PDGF and FGF for differentiation. After 5 days in the differentiating medium, approximately 40% of cells were positive for myelin protein 2′3′-cyclic nucleotide 3′-phosphodiestaerase (CNP). 70 U/ml recombinant rat IFN-γ (Calbiochem, La Jolla, Calif.) was added to the cells that had been allowed to differentiation for 5 days. […]
To determine whether INF-γ affects ER function, the RNA expression of ER markers binding immunoglobulin protein (BIP), CAAT enhancer binding protein homologous protein (CHOP), and caspase 12 was determined using real time PCR. […]
To determine the effect of INF-γ on the level of phosphorylated eIF-2α and caspase 12 proteins, western blot analysis was performed using the following antibodies anti-eIF-2α (1:500; Santa Cruz), anti-p-eIF-2α (1:1000, Cell signaling Technology), anti-caspase-12 (1:500; Santa Cruz) and anti-actin (1:1000; Sigma, St Louis, Mo.), and according to the following protocol. […] The protein content of each extract was determined by protein assay (Bio-Rad). […]

[3] = DOX− compared to control DOX+ mice

B1: IFN-γ: pleotropic cytokine secreted by activated T lymphocytes and natural killer cells; recombinant rat IFN-γ added to cultures or transgenically expressed in mouse CNS (protein, UniProt P01581 23-156, looked up)
Interferon gamma: QGTLIESLESLKNYFNSSSMDAMEGKSLLLDIWRNWQKDGNTKILESQIISFYLRLFEVLKDNQAISNNISVIESHLITNFFSNSKAKKDAFMSIAKFEVNNPQIQHKAVNELIRVIHQLSPESSLRKRKRSRC
level of mRNA for BIP [1, 3]: approximately 2 fold
level of mRNA for CHOP [1, 3]: approximately 2 fold
level of phosphorylated eIF-2α (Western blot) ([1]; DOX− double transgenic mice): approximately 1.8 fold
level of the CHOP protein (Western blot) ([1]; DOX− double transgenic mice): approximately 1.7 fold
caspase-12 expression (real-time PCR) ([2]; 70 U/ml IFN-γ): induction of caspase-12 was observed
level of phosphorylated eIF-2α (Western blot) ([2]; 70 U/ml IFN-γ, oligodendroglial cultures): significantly elevated
level of the active fragment of caspase-12 (Western blot) ([2]; after 48 h of IFN-γ treatment): strongly elevated
